Test results as given in patent US20180273622A1 (published 2018).
Substitutions are numbered along the chain they refer to.

B1: Fc DRA222 (TSC311 or TSC312) (Fc fusion)
chain: EPKSSDKTHTCPPCPAPEAAGAPSVFLFPPKPKDTLMISRTPEVTCVVVDVSHEDPEVKFNWYVDGVEVHNAKTKPREEQYNSTYRVVSVLTVLHQDWLNGKAYACAVSNKALPAPIEKTISKAKGQPREPQVYTLPPSRDELTKNQVSLTCLVKGFYPSDIAVEWESNGQPENNYKTTPPVLDSDGSFFLYSKLTVDKSRWQQGNVFSCSVMHEALHNHYTQKSLSLSPGQRHNNSSLNTGTQMAGHSPNSQVQLVESGGGVVQPGRSLRLSCKASGYTFTRSTMHWVRQAPGQGLEWIGYINPSSAYTNYNQKFKDRFTISADKSKSTAFLQMDSLRPEDTGVYFCARPQVHYDYNGFPYWGQGTPVTVSSGGGGSGGGGSGGGGSAQDIQMTQSPSSLSASVGDRVTMTCSASSSVSYMNWYQQKPGKAPKRWIYDSSKLASGVPARFSGSGSGTDYTLTISSLQPEDFATYYCQQWSRNPPTFGGGTKLQITSSS
B2: Fc H8L1 (TSC316) (Fc fusion)
chain: EPKSSDKTHTCPPCPAPEAAGAPSVFLFPPKPKDTLMISRTPEVTCVVVDVSHEDPEVKFNWYVDGVEVHNAKTKPREEQYNSTYRVVSVLTVLHQDWLNGKAYACAVSNKALPAPIEKTISKAKGQPREPQVYTLPPSRDELTKNQVSLTCLVKGFYPSDIAVEWESNGQPENNYKTTPPVLDSDGSFFLYSKLTVDKSRWQQGNVFSCSVMHEALHNHYTQKSLSLSPGQRHNNSSLNTGTQMAGHSPNSQVQLVQSGAEVKKPGASVKVSCKASGYTFTRSTMHWVRQAPGQGLEWMGYINPSSAYTNYNQKFKDRVTMTRDTSTSTVYMELSSLRSEDTAVYYCARPQVHYDYNGFPYWGQGTLVTVSSGGGGSGGGGSGGGGSGGGGSDIQMTQSPSSLSASVGDRVTMTCSASSSVSYMNWYQQKPGKAPKRWIYDSSKLASGVPARFSGSGSGTDYTLTISSLQPEDFATYYCQQWSRNPPTFGGGTKLQITSSS
B3: Fc H7L1 (TSC313) (Fc fusion)
chain: B2 chain with T328I, V331A, S337R, E341D

Molecular target: human CD3 (human, UniProt P07766 23-207; P09693 23-182; P04234 22-171; P20963 22-164)
Experiment: flow cytometry, Jurkat T cells

human CD3, sequence (P07766 23-207, chain 1 of 4): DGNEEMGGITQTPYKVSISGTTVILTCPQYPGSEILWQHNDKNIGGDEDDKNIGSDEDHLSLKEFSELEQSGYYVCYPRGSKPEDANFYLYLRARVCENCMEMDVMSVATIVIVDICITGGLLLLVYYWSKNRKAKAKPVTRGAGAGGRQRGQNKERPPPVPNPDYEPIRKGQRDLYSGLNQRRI
human CD3, sequence (P09693 23-182, chain 2 of 4): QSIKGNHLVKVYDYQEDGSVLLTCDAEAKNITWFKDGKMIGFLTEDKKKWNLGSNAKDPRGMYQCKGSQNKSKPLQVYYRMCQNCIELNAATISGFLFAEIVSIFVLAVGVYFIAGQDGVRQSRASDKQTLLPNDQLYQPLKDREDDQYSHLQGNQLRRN
human CD3, sequence (P04234 22-171, chain 3 of 4): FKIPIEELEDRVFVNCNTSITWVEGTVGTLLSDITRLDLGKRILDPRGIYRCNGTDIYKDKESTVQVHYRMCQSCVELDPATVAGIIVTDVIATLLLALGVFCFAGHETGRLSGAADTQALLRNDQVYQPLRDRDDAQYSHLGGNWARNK
human CD3, sequence (P20963 22-164, chain 4 of 4): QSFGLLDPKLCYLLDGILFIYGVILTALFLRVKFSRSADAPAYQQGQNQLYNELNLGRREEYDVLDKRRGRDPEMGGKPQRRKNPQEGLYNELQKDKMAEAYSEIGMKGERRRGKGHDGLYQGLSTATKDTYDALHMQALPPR

| EC50 [nM] | Binder |
| --- | --- |
| 1.7 | B1 |
| 1.3 | B2 |
| 0.87 | B3 |
